T1: Epstein-Barr virus BHRF1 a.a. 1-161 with C-terminal avi-6his tag (Epstein-Barr virus)
T1 construct: also called EBV BHRF1; BHRF1-biotin
T1 chain: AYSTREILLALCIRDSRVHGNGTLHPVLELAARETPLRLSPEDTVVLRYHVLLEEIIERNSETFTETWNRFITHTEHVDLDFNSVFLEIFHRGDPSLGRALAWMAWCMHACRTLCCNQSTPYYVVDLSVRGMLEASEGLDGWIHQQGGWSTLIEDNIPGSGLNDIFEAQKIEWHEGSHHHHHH

B1: Index 39 (designed binder)
chain: GKKYLKAARLALYLLWEAYLRGYLNLLLDELEAEFFDPHDERKIRYTINWIADALMLIGDLFNARLKMEKALWELKKEGKLREEDYEKMERLFRKWMELAFKWLEHFREMAEKAKKKG
B2: Index 56 (designed binder)
chain: GESAEKWRERLREKAGYWAEYAFWLADEAEKRAKIYSASSERRAEWTMRWIAIALAAIGDVFNEGQKADEKFDELKKQNKRSDDDLDDYKDKFKEEVEKALRKLLKAGDKIADLAEQG
B3: Index 46 (designed binder)
chain: GRDGERVVKWAKNQHENTVDEAKDKMDNQEDEMRKKNADDEKLRKETHKWIAFALEAIGDVFNDAMQAFELLERFKKFGQQEQKKLDEFKEKVERLAREASRKLTYLGKRFALDIESG
B4: Index 66 (designed binder)
chain: GRSKDDATKEAWERLERLLKEFKEKAEKLRDKAQAHYVYKQFALKVTILWIAWALKLIGDAFNFIEEAEKKMRENRERNLISEDDAREEKRKLEEFARRASKKANKIGDDLDRQLELG
B5: Index 45 (designed binder)
chain: GYSLDDFLKLAKLLAELLKRFIRKEAERLRELKEWLLDTTLGRLILTLEWIAIELMIIGDIFNAKMLLDKFAKYAEWLGLMKEEEAKQAKKLAKLLLDEVKDEARKKADDGEKFAEEG
B6: Index 52 (designed binder)
chain: GNDKEKFREDVKKKAKYALWKLKKLADEAKERALKFDPSEEMKREFTLEWIAWALEAIGDIFNAWLDGKKYADEAKKQGKARKEEAEETKKEATRIAKEAHEKASELARKILYHMLLG
B7: Index 38 (designed binder)
chain: GEKLKKLAEELEKKFRKLFFILKDELDRAYLIALKTQVQRQELARDTKLWIAVALMIIGDLFNAEIQGKELRDKLIKKNQVEEQKAKEFWKKWEEVKQRAEELIKKGGEMVERLADYG
B8: Index 58 (designed binder)
chain: GEKAKKLEEYAREEIERALREGGDLMEEEREFGEKTELTTEWKHRAMAYWIAAALMIIGDGFNALQFIEEEGRKFIRKGEFARQKIEEHKERAKERLEKALKQAKKRGDELDRFARLG
B9: Index 54 (designed binder)
chain: GDKHEEAKEEAEKKFEKLRIEARLKAEWLKKAGKYGLQLQELWAKLSDYWIAFALEIIGDLFNFLEEHKEKIEKDLKKGEALDDRADDILKDLEKKAKEVSKHAMKLGREAQQFIELG
B10: Index 64 (designed binder)
chain: GLSGDDAEDFARQEIEKRAREAEEKARKLIWLASKYDAKREEALKFHLRWIAFALMMIGDAFNAEEIAREMLEIARELGLTREEEAKEKLEKIRKKETEASKKMAERGRRLDNQANNG
B11: Index 55 (designed binder)
chain: GEEAEKLIKEAKDKFEDLREKAEELLYKMWLIRYLSSKDTKRGEIYTKKWIAIMLMMIGDAFNMALRARLYLEERRKRGEKHEEEAEEKERRARWEQEDAYKKAKKGAKRARLYDKLG
B12: Index 49 (designed binder)
chain: GWSKDWVLEWLREKLEEIDREALWKFILIWIEKMLGVDDDEQRRKDAAKWIAGSLEAIGDIFNAMMWAKRLLEWLEKANLVRREELEKAKQKAEELAKKAALRAAIYSKIAEEWLWKG
B13: Index 51 (designed binder)
chain: GWTALWLKDFTEQEARKKFREALYYGWMMAMRALEHQLQADELAMWTALWIAAMLEAIGDMFNDKLRAEKYALLLIWLNLYHKDIAEKWREEHEEKLKEALQEMFEAAEKFDKFAKFG
B14: Index 42 (designed binder)
chain: GQQEEQFIEDFKKEVLRAADDAKDDMEKRAEEFLKKDGDDNEKKRKILKWIADALEAIGDLFNAAQEAKRRAELYFKLGLLKKERKEEAEEEAEKAKEEASKKLHKAAREARIKMEKG
B15: Index 48 (designed binder)
chain: GEKGKEKAQKFRDIIKDILEEAIRLAKDLAEDAKKFDLKLEKLLEATLKWIAAALMAIGDLFNFKDLAEKEVRERHDRGEISSDRRDKYEKEAREGADEAAKELSKLAKIAEKKILEG
B16: Index 57 (designed binder)
chain: GDLKEELKERAKKIIRRALDEAKDAEDLIKKEAEKRYVTTEMATKFVAWWIAGALMIIGDIFNAAREVKERAEKALKWGVLSQDDIKELLLELENLEQEAKERAKEFGEKAEKFKKMG
B17: Index 53 (designed binder)
chain: GHVAEEEIRRFLRKAEKVLQEARRKMEKRRREAEEHDTTTWLLARGTIEWIADALMLIGDAFNFRREAYIRGELYKKFGLIREDDLKDRLKEADQRLDEFAKKMALFGLELHLRLREG
B18: Index 65 (designed binder)
chain: GNDLKDIARQIEEQAKKALDDMAKLIRELAEKAEKFYPSKDDIRRLTHYWIAAALMAIGDAFNRLQEARRRAEWLRKWGLRREEEAEKAKKEAEERHERAKELAHKMGDEMEEKLKRG
B19: Index 40 (designed binder)
chain: GNEAEQRREEFKEIMEKKKDEAEKKSEKIKRLALAFDLSDDDKTKATDEWIAISLEIIGDAFNFGEGLKDEAKRRKKRGLKRDEEVDKFEKIAEQAIEELRKLAEEADERGAKHLRDG
B20: Index 68 (designed binder)
chain: GVSIEWAFDFLENKAEEDAREARRLAQKLAEEFFKHSAREEDRAKLTKKWIAVALMIIGDIFNVEQFTKQQGEEFVKRGLRSEDDFKEYLRKMEEKKEEAERIAKRAKDDMLKARDLG
B21: Index 59 (designed binder)
chain: GITLEKLWKEAKEKIRKREDEALLKAEWFKKKANNVLDLNDMKAKMTAKWIALALMAIGDIFNYLLETEIKARLLVRLGLFRQEEAEKKKEEAKEEAIKSSRNIAKRGEEAAKQMEQG
B22: Index 41 (designed binder)
chain: GEQEDKVKERAKRGALERAREMFEKMRKAIYLAELYINNDEGKTKLTDRWIAFALMMIGDIFNIALEARLEALKLVLKGLRSQEDAEKVKKLAEEAEREAAKRAAKLGDKMDEKEHEG
B23: Index 61 (designed binder)
chain: GEHLDELLLKLLWLAIQFAERAKLTIELWKLWGKITQSYNEWAEKAARDWIAAALMIIGDMFNHKQKAEEEAKKFAKKGLKRKEELEELLKKLEEFIKRAKKLIKETAQKHEEASKMG
B24: Index 60 (designed binder)
chain: GRQEDEIKDEATKRALEILQKLEQKVRKAKKFAKYGLLLQRWWAWITKVWIAAALDAIGDAFNLGEELKRILEELRRRGLSSEEKAQEIKNWIEWLEKWVAIMAKLFGEELEKQFKQG
B25: Index 44 (designed binder)
chain: GESGEWILEKTREKIERAIRDAEKKLRLIILLIRLFHPGDDLRALFAAIWIAAELELIGDIFNEKQDAEEKFKELLKKNQFRWEELWRKWLILEWIFQKARRKSKELAERAKKAFDFG
B26: Index 43 (designed binder)
chain: GKKAEEVLKEARKLHEAQLRYAYLMMKDWREKKQQEEKQTQREEKWTAWWIALMLMAIGDIFNFAEWAKEELDKLREKGLVEKKKAEEAKEKAEKLAEEASRRASEFAQLFAKWDKEG
B27: Index 50 (designed binder)
chain: GKRAEELREEAEERAKEAFKETEQKLREVEERSRQTLARDEELRKAALLWIAAALMGIGDLFNKKEKGKEALEKEEKNGKRRTERAEREKERLEKEVSREAQRFKKKGEEEEKKHKYG
B28: Index 62 (designed binder)
chain: GKLGEELREDAEKKGEEDMRRFERRIREIKRKLKFGYDFEQRKREATHKWIAFALEMIGDAFNFAQKLERALELFKKWNIYSEDDLRELKKRFEEAKEKLKKFADRIRDEGLKAVLLG
B29: Index 63 (designed binder)
chain: GDDKEKVKDYAKKRALEDVLRAKELAEKFIDEAKKSDHSKQNERQYIIAWIAFMLMAIGDVFNAMMEAKRLAELLKRLGLRRWEEAEEVKQKAEELAEEASRLLADLGKDFAKKIEQG

Columns and labels:
[1] = target: T1, Epstein-Barr virus BHRF1 a.a. 1-161 …; assay: yeast display library, FACS sort at 400 nM BHRF1, deep sequencing
[2] = target: T1, Epstein-Barr virus BHRF1 a.a. 1-161 …; assay: yeast display library, FACS sort at 100 nM BHRF1, deep sequencing

| Binder | Log2 enrichment ratio [1] [log2] | Log2 enrichment ratio [2] [log2] |
| --- | --- | --- |
| B1 | -2.01 | -2.08 |
| B2 | -3.81 | -3.49 |
| B3 | -3.6 | -3.41 |
| B4 | -2.49 | -2.03 |
| B5 | -3.17 | -2.44 |
| B6 | -0.2 | -0.83 |
| B7 | -1.46 | -1.71 |
| B8 | -2.11 | -2.36 |
| B9 | -2.24 | -3.22 |
| B10 | -1.68 | -3.51 |
| B11 | -3.29 | -2.69 |
| B12 | -1.22 | -2.7 |
| B13 | -2.43 | -2.53 |
| B14 | -3.15 | -3.63 |
| B15 | -2.33 | -2.8 |
| B16 | -2.85 | -1.97 |
| B17 | 0.4 | -0.29 |
| B18 | -2.31 | -3.2 |
| B19 | -4.69 | -3.7 |
| B20 | -3.63 | -2.57 |
| B21 | -2.36 | -2.86 |
| B22 | -2.39 | -2.17 |
| B23 | -3.54 | -2.79 |
| B24 | -2.63 | -2.91 |
| B25 | -3.16 | -3.29 |
| B26 | -3.04 | -2.44 |
| B27 | -3.47 | -3.79 |
| B28 | -2.65 | -3.21 |
| B29 | -2.41 | -2.52 |

Reference: patent US20160376333A1 (University of Washington, published 2016)
